Source: US20260216095A1, “NANOSHEET-HYDROGEL COMPOSITES AND METHODS OF US” (Rutgers, The State University of New Jersey, priority 2023, published 2026)

Tested on: aggrecan (ACAN)
Test: Rat nucleotomy model, immunohistochemistry for aggrecan
Type: in vivo, Sprague-Dawley rats
Settings: six weeks
Description: Animal Model Nucleotomy: In total, eight-weeks-old female Sprague-Dawley rats (220-240 g) were purchased from Orient Bio Inc., Korea, and were acclimatized for a week at a life/dark cycle of 12/12 h (temperature; 22±1° C. and relative humidity; 50%±1%) and free approach to food and water. The animal experiments were performed according to the direction approved by the Institutional Animal Care and Use Committee (IACUC) of CHA Bundang Medical Center (IACUC 200141). At the beginning of the surgery, the peritoneal site was sterilized with 70% alcohol. Afterward, rats were thoroughly anesthetized with a general anesthesia mixture of Zoletil® (50 mg/kg Virbac Laboratories, France) and Rompun® (10 mg/kg, Bayer, Korea) injected intraperitoneally. […]
Immunohistochemistry: After six weeks of implantation, rats were euthanized via excess carbon dioxide inhalation and coccygeal discs were collected, and immunohistochemical analysis was performed for aggrecan (disc matrix component), collagen type II (a component of disc NP matrix), CGRP (pain-marker), Iba1 (pan-macrophage), CD86 (M1-macrophage) and CD163(M2-macrophage). […] The sections were mounted and finally examined using a fluorescence microscope (Zeiss 880, Germany and Leica SP5, Germany). The percentage of the positive area and cell number relative to DAPI was calculated by using ImageJ Software.

B1: GDF-5 alone: growth differentiation factor 5 (Peprotech, Catalog No. 120-01), given as saline solution (protein, UniProt P43026 382-501, looked up)
Growth/differentiation factor …: APLATRQGKRPSKNLKARCSRKALHVNFKDMGWDDWIIAPLEYEAFHCEGLCEFPLRSHLEPTNHAVIQTLMNSMDPESTPPTCCVPTRLSPISILFIDSANNVVYKQYEDMVVESCGCR
- aggrecan expression (IHC): decreased aggrecan expression
